{"source": "paper PMC8263776", "about": "“Calmodulin-dependent KCNE4 dimerization controls membrane targeting” (Scientific Reports, 2021)", "parents": {"B1": {"name": "KCNE4-CFP [mouse] / KCNE4-YFP [mouse] (parent)", "chain 1": "MLRMEPLNSTYPSAAASSSPLESHVPSNSSGNGNEYFYILVVMSFYGVFLIGIMLGYMKSKRREKKSSLLLLYKDEERLWGEAMKPLPMMSGLRSGQVPMMLNMLQESVAPALSCTLCSMEGDSVSSESSSPDVHLPIQEEGADDELEETSETPLNDSSEGSSENIHQNS", "chain 2": "B1 chain 1"}}}
{"variants_of": "B1", "assay": "FRET (CFP/YFP) in cells", "conditions": "with KCNE4-YFP [mouse]; HEK-293 cells; n > 25 cells; parent: 12; read off a plot", "units": {"response": "%"}}
{"variant": "chain 1 MLRMEPLNSTYPSAAASSSPLESHVPSNSSGNGNEYFYILVVMSFYGVFLIGIMLGYMKSKRREKKSSAAAAYKDEERLWGEAMKPLPMMSGLRSGQVPMMLNMLQESVAPALSCTLCSMEGDSVSSESSSPDVHLPIQEEGADDELEETSETPLNDSSEGSSENIHQNS", "response": 7.2}
